± gives the standard deviation of the averaged measurements.
Experiments:
[1] = system: VchCAST RNA-guided transposition machinery (E. coli BL21(DE3) host, lacZ target); assay: relative integration efficiency (T-LR orientation) vs wild-type transposon end (log2 (normalized fold change)); transposon end mutated: right end (5 bp flank + 75 bp right end); higher = more efficient transposition
Summary of the method: (§1)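 Relative integration efficiency is a fold change of output over input barcode abundance, normalised to reference barcodes and log-transformed. Input plasmids and genomic integration junctions were PCR-amplified and Illumina-sequenced from E. coli BL21(DE3) co-transformed with a T7-driven effector plasmid and pUC57 donor pools of 1549 left-end or 1849 right-end transposon variants. Plating was done with 0.1 mM IPTG at 37°C for 18 h, with two biological output replicates and four reference barcodes.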

[2] = system: VchCAST RNA-guided transposition machinery (E. coli BL21(DE3) host, lacZ target); assay: relative integration efficiency (T-RL orientation) vs wild-type transposon end (log2 (normalized fold change)); transposon end mutated: right end (5 bp flank + 75 bp right end); higher = more efficient transposition
Summary of the method: as §1

Row | Sequence | relative integration efficiency (log2) [1] | relative integration efficiency (log2) [2]
1 | ACATTTGTTGATACAACCATAAAATGATAATTACACCCATAAATTGAGCCGGCGACACAAACGCCCGGTCGCGGTAAGAGGATCATAGTCAGACCAACATTGCTACGACCCGTATTCGCACCGACAC | 1.83 ± 0.037 | -1.02 ± 0.23
2 | ACATTTGTTGATACAACCATATATTGATATCTCCACCCATAAATTGATATTGCTCACAACCATAAAGTGATATTTACTCTGATCATAGTCAGACCAACATTGCTACGACCCGTATTCGCACCGACAC | -0.202 ± 0.54 | -0.6 ± 0.069
3 | ACATTTGTTGATACAACCATAAAATGATAATTAACAAACGCCCGGTCGCCGGCTCACACCCATAAATTGATATTGCCTCTGATCATAGTCAGACCAACATTGCTACGACCCGTATTCGCACCGACAC | -0.997 ± 0.22 | -3.28 ± 0.31
4 | ACATTTGTTGATACAACCATAAAGTGATATTTACACCCATAAATTGATAATTATCAGTGGGTATTTAACTATAACGCTCTGATCATAGTCAGACCAACATTGCTACGACCCGTATTCGCACCGACAC | 2.57 ± 0.054 | -0.826 ± 0.22
5 | ACATTTGTTGATACAACCATAAAATGATAATTACACCCATTAATTGATAATGATGACACCGAATTTAACTATAACGCTCTGATCATAGTCAGACCAACATTGCTACGACCCGTATTCGCACCGACAC | 2.15 ± 0.056 | -1.4 ± 0.35
6 | ACATTTGTTGATACAACCATAAAATGATAATTACACCCATAAATGGATCATTATCACCCCCAATTTAACTATAACGCTCTGATCATAGTCAGACCAACATTGCTACGACCCGTATTCGCACCGACAC | 1.15 ± 0.28 | -1.44 ± 0.18
7 | ACATTTGTTGATACACCCATAAATTGATATTGCCAACCATAAAGTGATATTTATCACAACCATATATTGATATCTCCTCTGATCATAGTCAGACCAACATTGCTACGACCCGTATTCGCACCGACAC | 0.117 ± 0.34 | -0.78 ± 0.17
8 | ACATTTGTTGATACACCCATAAATTGATATTGCCAACCATATATTGATATCTCTCACACCCATAAATTGATAATTACTCTGATCATAGTCAGACCAACATTGCTACGACCCGTATTCGCACCGACAC | 0.0732 ± 0.11 | -1.1 ± 0.15
9 | ACATTTGTTGATACCACCATAAAATGATAATTACACCCATACATTGATAATTATCACACCCAATTTAACTATAACGCTCTGATCATAGTCAGACCAACATTGCTACGACCCGTATTCGCACCGACAC | 0.947 ± 0.23 | -2.1 ± 0.38
10 | ACATTTGTGGATACAACCATAAAATGATAATTACACCCATAAATGGATCATTATCACCCCCAATTTAACTATAACGCTCTGATCATAGTCAGACCAACATTGCTACGACCCGTATTCGCACCGACAC | 1.36 ± 0.19 | -1.28 ± 0.28
11 | ACATTTGTTGATACAACCATAAAATGATAATTACACCCATAAATTGATAATTATCACACCCATAAATTGATATTGCCTCTGATCATACAACCATAAAATGATAATTAGTCAGACCAAGCACCGACAC | -0.751 ± 0.19 | 0.403 ± 0.3
12 | ACATTTGTTGATACAACCATAAAATGATAATTACACCCATATTAAGATAATTATCACACCCATAAATTGATATTGCCTCTGATCATAGTCAGACCAACATTGCTACGACCCGTATTCGCACCGACAC | -0.688 ± 0.12 | -0.6107 ± 0.0014
13 | ACATTTGTTGATACAACCATAAAATTATAATTACACCCATAAATTTATAATTATCACACCCATAAATTTATATTGCCTCTGATCATAGTCAGACCAACATTGCTACGACCCGTATTCGCACCGACAC | 0.398 ± 0.67 | -1.23 ± 0.3
14 | ACATTTGTTCATACAACCATAAAACGATAATTACACCCATAAATTGATCATTATCACACCCAATTTAACTATAACGCTCTGATCATAGTCAGACCAACATTGCTACGACCCGTATTCGCACCGACAC | -0.162 ± 0.59 | -2.19 ± 0.3
15 | ACATTTGTAAAAAAAACCATACGTTGATTTTACGAAACCATACGCTGAAATAAAAACAACCATACCTTGAAATTGCTTATAAAGTGTACAACACTTGAGAAAGTTTACTACAGGTATGCACCGACAC | < -10 | -7.441 ± 0.019
16 | ACATTTGTTGATACCACCATCAAATGATAATTCCACCCATAAATTGATAATTATCACACCCAATTTAACTATAACGCTCTGATCATAGTCAGACCAACATTGCTACGACCCGTATTCGCACCGACAC | 1.36 ± 0.27 | -2.05 ± 0.11
17 | ACATTTGTTGATACAACCATTAAATGCTAATTCCACCCATAAATTGATAATTATCACACCCAATTTAACTATAACGCTCTGATCATAGTCAGACCAACATTGCTACGACCCGTATTCGCACCGACAC | 2.09 ± 0.22 | -0.972 ± 0.32
18 | ACATTTGTTGATACAACCATAAAATGATAATTACACCCATAAATTGATTTTTATCACACCCATAAATTGATATTGCCTCTGATCATAGTCAGACCAACATTGCTACGACCCGTATTCGCACCGACAC | 0.0005 ± 0.35 | -0.629 ± 0.28

Row | Sequence | relative integration efficiency (log2) [1] | relative integration efficiency (log2) [2]
19 | ACATTTGTTGATACAACCATAAAATGATAATTACACAAATAAATTGATAATTATCACACCCATAAATTGATATTGCCTCTGATCATAGTCAGACCAACATTGCTACGACCCGTATTCGCACCGACAC | -1.82 ± 0.23 | -0.996 ± 0.19
20 | ACATTAGTTGATACAACCATAAAATGATAATTACACCCATAAATTCATCATTATCACACCCAATTTAACTATAACGCTCTGATCATAGTCAGACCAACATTGCTACGACCCGTATTCGCACCGACAC | -4.99 ± 0.51 | -7.83 ± 0.12
21 | ACATTTGTCGATACAACCCTAAAATGATAATTACACCCATAAATTGATCATTATCACCCCCAATTTAACTATAACGCTCTGATCATAGTCAGACCAACATTGCTACGACCCGTATTCGCACCGACAC | 0.684 ± 0.37 | -2.5 ± 0.47
22 | ACATTTGTTGATACAACCATAAAATGATAATTACACCCATCAATTGATAATTATCACACCCCATTTAACTATAACGCTCTGATCATAGTCAGACCAACATTGCTACGACCCGTATTCGCACCGACAC | 1.6 ± 0.24 | -1.68 ± 0.23
23 | ACATTTGTCGATACAACCATAAAATGATAATTACCACCCATAAATTGATAATTATCACACCCATTTAACTATAACGCTCTGATCATAGTCAGACCAACATTGCTACGACCCGTATTCGCACCGACAC | 1.62 ± 0.092 | -1.12 ± 0.076
24 | ACATTTGTTGATACAACCATAAAATGATAATTACACCCATAAATTGATAATTATCAACAAACGCCCGGTCGCGGTAAGAGGATCATAGTCAGACCAACATTGCTACGACCCGTATTCGCACCGACAC | 2.49 ± 0.05 | -0.451 ± 0.085
25 | ACATTTGTTGATACAACCATAAAATGATAATTACACCCATAAATTGATAATTATCACACCACTAAATTGATATTGCCTCTGATCATAGTCAGACCAACATTGCTACGACCCGTATTCGCACCGACAC | 2.35 ± 0.27 | -0.503 ± 0.044
26 | ACATTTGTTGATACAACCATAAAATGTTAATTACACCCATAAATTGTTAATTATCACACCCATAAATTGTTATTGCCTCTGATCATAGTCAGACCAACATTGCTACGACCCGTATTCGCACCGACAC | -0.437 ± 0.34 | -2.33 ± 0.29
27 | ACATTTGTGGATACAACCATAAAACGATAATTACACCCATAAATGGATAATTATCACACCCAATTTAACTATAACGCTCTGATCATAGTCAGACCAACATTGCTACGACCCGTATTCGCACCGACAC | 1.3 ± 0.17 | -1.46 ± 0.2
28 | ACATTTGTTGATAAAACCATAAAATGATAATTAGACCCATAAATTGATAATTATCACACCCATAAATTGATATTGCCTCTGATCATAGTCAGACCAACATTGCTACGACCCGTATTCGCACCGACAC | -1.02 ± 0.36 | -1.09 ± 0.15
29 | ACATTTGTTGATACAACCATAAAATGATAAATACACCCATAAATTGATAATAATGACACCGAATTTAACTATAACGCTCTGATCATAGTCAGACCAACATTGCTACGACCCGTATTCGCACCGACAC | 2.26 ± 0.23 | -1.36 ± 0.43
30 | ACATTTGTTGATACAACCATAAAATGATAATTTGTGCCATAAATTGATAATTATCACACCCATAAATTGATATTGCCTCTGATCATAGTCAGACCAACATTGCTACGACCCGTATTCGCACCGACAC | -1.18 ± 0.14 | -1.7 ± 0.25
31 | ACATTTGTTGATACAACCATAAAAGGATCATTACCCCCATAAATTGATAATTATCCCACCCCATTTAACTATAACGCTCTGATCATAGTCAGACCAACATTGCTACGACCCGTATTCGCACCGACAC | 0.775 ± 0.15 | -2.25 ± 0.25
32 | ACATTTGTTGATACAACCATAAAATGATAATTACACCCATAAATTGATAATTATCACACCCATAAATTGATATCTCTGATCATAGTCAGACCAACATTGCTACGACCCGTATTCGCACCGACACTGA | -0.209 ± 0.13 | -0.049 ± 0.013
33 | ACATTTGTGGATACAACCATAAAATGATAATTACACCCATAAATTTATAATTATCACACCCAATTTAACTATAACGCTCTGATCATAGTCAGACCAACATTGCTACGACCCGTATTCGCACCGACAC | 1.8 ± 0.36 | -1.09 ± 0.41
34 | ACATTTGTTGATACCACCATAAAATGATAATTCCACCCCTAAATTGATAATTATCACACCCAATTTAACTATAACGCTCTGATCATAGTCAGACCAACATTGCTACGACCCGTATTCGCACCGACAC | 0.417 ± 0.16 | -2.92 ± 0.31
35 | ACATTTGTTGATACAACCATAAAATGATAATTACACCCATAAATTGATAATTAAGTGACCCATAAATTGATATTGCCTCTGATCATAGTCAGACCAACATTGCTACGACCCGTATTCGCACCGACAC | 0.91 ± 0.58 | -0.484 ± 0.16

Reference: the supplement of paper PMC10201428
